Consider five molecules from EP2450379B1 (Crucell Holland B.V., dated 2015).

The target in assay [1] is T1, soluble recombinant HA (sHA) of H5N1TV (influenza A virus A/Vietnam/1194/2004 …, UniProt Q6J8F6 17-528). Description: immunoblot (data not shown).
The target of assay [2] is T1, soluble recombinant HA (sHA) of H5N1TV. Description: immunoblot, reducing SDS-PAGE. (In western blotting, separated proteins are transferred to a membrane and probed.)

B1: CR6141 (antibody, V domains shown)
VH: EVQLVQSGAEVKKPGASVKVSCKASGYTFTGYYVYWVRQAPGQGLEWMGWISAYNGNTNYAQKFQGRVTITADKSTSTAYMELSSLRSEDTAVYYCARSRSLDVWGQGTTVTVSS
VL: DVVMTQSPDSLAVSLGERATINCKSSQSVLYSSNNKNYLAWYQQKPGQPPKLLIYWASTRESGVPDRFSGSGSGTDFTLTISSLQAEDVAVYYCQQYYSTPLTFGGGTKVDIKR
notes: human IgG1
Turning to B1, the binding result in assay [1] is reported as “binds”.

B2: CR6323 (antibody, V domains shown)
VH: EVQLVESGAEVKKPGSSVKVSCKASGGTFSSYGISWVRQAPGQGLEWMGDIIGMFGSTNYAQNFQGRLTITADESTSTAYMELSSLRSEDTAVYYCARSSGYYPAYLPHWGQGTLVTVSS
VL: not shown
notes: human IgG1
For B2, the binding result in assay [2] is “binds”.

B3: CR6307 (antibody, V domains shown)
VH: QVQLVQSGGGLVKPGGSLRLSCAASGFTFSSYSMNWVRQAPGKGLEWVSSISSSSSYIYYVDSVKGRFTISRDNAKNSLYLQMNSLRAEDTAVYYCARGGGSYGAYEGFDYWGQGTLVTVSS
VL: EIVLTQSPGTLSLSPGERATLSCRASQRVSSYLAWYQQKPGQAPRLLIYGASTRAAGIPDRFSGSGSGTDFTLTISRLEPEDSAVYYCQQYGRTPLTFGGGTKVEIKR
notes: human IgG1
With B3, in assay [2], the binding result is “binds”.

B4: CR6296 (antibody, V domains shown)
VH: EVQLVETGAEVKKPGASVKVSCKASGYTFTSYYMHWVRQAPGQGLEWMGWINPNSGGTNYAQKFQGRVTMTRDTSISTAYMELSRLRSDDTAVYYCAREGKWGPQAAFDIWGQGTMVTVSS
VL: EIVMTQSPGTLSLSPGERATLSCRASQSVSSSYLAWYQQKPGQAPRLLIYDASSRATDIPDRFSGSGSGTDFTLTISRLEPEDFAVYYCQQYGSSLWTFGQGTKVEIKR
notes: human IgG1
B4: the binding result in assay [1] is recorded as “binds”.

B5: CR6301 (antibody, V domains shown)
VH: EVQLVESGGGLVQPGGSLRLSCAASGFTFSIYAMSWVRQAPGKGLEWVSAISSSGDSTYYADSVKGRFTISRDNARNTLYLQMNSLRAEDTAVYYCARAYGYTFDPWGQGTLVTVSS
VL: not shown
notes: human IgG1
B5: in assay [1], the binding result was “binds”.
